Switch fluorescence ratio data for 66 sequences are collected here from the supplement of paper PMC10126150.

± gives the standard deviation of the averaged measurements.

For the data set, the system named is ATP. Briefly: switch fluorescence ratio, 500 uM ATP over buffer (Cy3 cluster intensity, sum of 5 cycles each) (fold (ratio)); higher = stronger signal-on switching upon ATP binding; sequences stand for … in TCGTCGGCAGCGTCAGATGTGTATAAGAGACAGTTTTTTTTTTTTTTTTTTTTTTTTT…TC. The note with it: aptamer strand: ATP DNA aptamer (quencher-CACCTGGGGGAGTATTGCGGAGGAAGG + anchor), 100 nM annealed; ATP concentration: 500 uM. The procedure, abridged: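 Clusters carrying Cy3-labelled switching strands on a modified Illumina MiSeq flow-cell were annealed to 100 nM quencher-labelled ATP aptamer and imaged in selection buffer. They were imaged again after 15 min with 500 uM ATP at 22 °C, over five buffer/ATP cycles with NaOH stripping and re-annealing in between. For each cluster, the fluorescence ratio is the summed Cy3 intensity of the target cycles divided by that of the buffer cycles, averaged per switch-domain sequence. Clusters outside 100-1000 RFU were left out.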
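Further: ATP exposure 15 min at 22 °C before imaging.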

Turning to ATTCAATCCA, the switch fluorescence ratio came to 0.989 ± 0.012.
The result for TTTAGTTGAG reads 0.971 ± 0.025.
On to GATTTTCCGT, for which the switch fluorescence ratio came out at 1.009 ± 0.009.
The result for TAGGGACGGC reads 1.07 ± 0.095; that for GGGGTCGGTC, 1 ± 0.023.
Then TCCAGGCGTA, with 1.021 ± 0.0089.
On to AAGGGTAAGC, for which the switch fluorescence ratio came to 0.981 ± 0.029.
Consider AGGGTTTGAG, for which the switch fluorescence ratio came out at 1.11 ± 0.2.
Then AGTGTTTGTT, with 0.9995 ± 0.0052; and ATGTGGGTGT, with 1.02 ± 0.013; and TAAGGTATTT, with 1.01 ± 0.023.
Then AAGTTAAAGG, with 1.03 ± 0.077; and ATAGTTGGTT, with 1.01 ± 0.03; and ATCAAAAACG, with 1.01 ± 0.029.
The result for GCGTTCACGG reads 0.988 ± 0.026; that for GGTTTAAGGC, 0.993 ± 0.047.
As for GGGGATGGTA, the switch fluorescence ratio was 0.978 ± 0.025.
For TCTAGCACGG, the switch fluorescence ratio was 1.06 ± 0.023.
In the case of ATCGGGTGTG, the switch fluorescence ratio stood at 0.9871 ± 0.0015.
Then GAGAGGAGGG, with 0.944 ± 0.049; and TGCTTCTCGA, with 0.991 ± 0.031; and TTCTGGCTAT, with 1.01 ± 0.039.
On to TTATACCAAT, for which the switch fluorescence ratio was determined as 1.013 ± 0.0022.
Then GTCGGGATAT, with 1.03 ± 0.018; and ATTAAATTGT, with 0.9919 ± 0.0062.
Consider TGACGTGCGC, for which the switch fluorescence ratio was determined as 1.143 ± 0.0093.
Then TACAGAATGG, with 0.991 ± 0.014; and TTTCAGAGAA, with 1.04 ± 0.049.
With AAGTTGGGAT, the switch fluorescence ratio was determined as 0.972 ± 0.037.
The result for GTTGAAACGT reads 1.06 ± 0.023.
The result for CTGCACGGAG reads 1.01 ± 0.022.
The result for GTTTTTCGAT reads 1.02 ± 0.001; that for AATTTGGACT, 1.03 ± 0.027; that for TGGGGAGCCT, 1.03 ± 0.041.
For the sequence TTGGGTTGAG, the switch fluorescence ratio came to 0.999 ± 0.016.
Consider TTGTTTTGAA, for which the switch fluorescence ratio was 1.006 ± 0.0053.
Then TCGGAAGGGT, with 0.9933 ± 0.0075; and TATGTGAGGA, with 0.989 ± 0.025; and TAGTTTAATT, with 0.998 ± 0.015.
As to TATTTGTAGT, the switch fluorescence ratio is 1.01 ± 0.039.
The result for ATGTCAGCGC reads 1 ± 0.044; that for ATAAGGGGGT, 0.973 ± 0.016.
For the sequence TTATTTTATT, the switch fluorescence ratio is 0.998 ± 0.021.
As to TTGTTATGAT, the switch fluorescence ratio was determined as 1.01 ± 0.018.
On to CCTTGAATGG, for which the switch fluorescence ratio worked out at 1.05 ± 0.005.
Regarding CCTATGAATG, the switch fluorescence ratio turned out to be 0.987 ± 0.018.
For the sequence GGCTTGAACT, the switch fluorescence ratio turned out to be 1.05 ± 0.083.
Take TCCGGGAATT: the switch fluorescence ratio was 1.02 ± 0.021.
Regarding AATTGGAGGA, the switch fluorescence ratio turned out to be 0.996 ± 0.033.
As for CCATTATTTT, the switch fluorescence ratio is 1 ± 0.03.
Take GCATGTCTGC: the switch fluorescence ratio turned out to be 0.9862 ± 0.0093.
Consider CCAAAAGGCT, for which the switch fluorescence ratio turned out to be 1.08 ± 0.044.
TCGGGGGGAC: the switch fluorescence ratio was determined as 1.03 ± 0.036.
The result for GCAAAAGGGA reads 1.01 ± 0.013; that for GGATTGTATG, 0.994 ± 0.032.
The result for GATCGCTAGG reads 0.984 ± 0.035; that for TATTTGAGCT, 1.03 ± 0.037.
The result for TTATAGAGTT reads 0.9649 ± 0.0032.
Regarding AGTTTTTAAA, the switch fluorescence ratio was determined as 1.027 ± 0.0039.
The result for AAGGTTGGTG reads 1 ± 0.034.
Then TATAAGTAGT, with 0.956 ± 0.011; and TTGAGTTTAT, with 1.02 ± 0.12.
Then CCTTGCGTTC, with 2.68 ± 0.19; and ATTTGCGAAT, with 0.966 ± 0.039; and CGAGGTTTTC, with 0.9817 ± 0.0056.
Take TTAAGGTCCG: the switch fluorescence ratio stood at 0.987 ± 0.047.
